Results from US20240058465A1 (SUTRO BIOPHARMA, published 2024).
Changes are numbered by the printed parent chain. Where two headings read alike, the source gives them in different places.

Key:
[1] = molecular target: T1, human ROR1 extracellular domain (human, UniProt Q01973 30-406); experiment: SPR (Biacore T200), IgG captured by anti-human Fc, ROR1 ECD as analyte, 1:1 Langmuir fit
T1 construct: Bought recombinant protein (Acro Biosystems); also called ROR1 ECD; hROR1
Experimental: (§1) The data was fit with the Biacore™ T200 Evaluation software, using a 1-1 Langmuir binding model. KD (affinity, nM) was determined as a ratio of the kinetic rate constants calculated from the fits of the association and dissociation phases.

[2] = molecular target: T2, human ROR1 Immunoglobulin domain (Ig, residues 39-151) with C-terminal HIS6 tag (human, UniProt Q01973 39-151); experiment: SPR kinetic screen (Biacore), antibody captured as ligand (Fc=2-1), sample printed as ROR1 Ig, 25 C, 1:1 binding model
T2 construct: Made in HEK293 cells and purified (Acro Biosystems)

[3] = molecular target: ROR1 (recombinant protein coated on the ELISA plate, Example 11) (UniProt Q01973 30-403, limits assumed); experiment: ELISA: ROR1 coated on the plate, antibody titrated 3-fold from 5 ug/mL, HRP anti-human Fc, chemiluminescence (ELISA RLU)
From the text: The anti-ROR1 lead antibodies were discovered from a Fab ribosome display library that contained CDR H1, H2, and H3 diversity and utilized a constant LC (trastuzumab LC). In this example, the HCs of the lead antibodies were co-expressed with trastuzumab LC or different LCs derived from anti-CD3 antibodies: hOKT3-LC1, hSP34-LC3, hUCHT1-LC3 to determine if the anti-ROR1 HC leads would retain binding to ROR1 when assembled with anti-CD3 LCs. […] The antibodies were then purified and tested for ROR1 binding by ELISA. The ELISA assay was carried out as follows. Briefly, 2 μg/mL of ROR1 was coated to a 384-well polystyrene plate for 1 hr at 30° C. in 0.1 M bicarbonate pH8.9 buffer before it was washed and blocked with 2% BSA in PBST (PBS, 0.1% Tween20) for 1 hr. Antibody variants were diluted to 5 μg/mL and further serially diluted 3-fold before 30 μL was applied to the ELISA plates for binding ([…] Antibody binding was detected via HRP-conjugated anti-human Fc antibodies (Jackson Immunoresearch) and detection with SuperSignal ELISA Pico Chemiluminescent Substrate (Pierce).

[4] = molecular target: T2, human ROR1 Immunoglobulin domain (Ig, …); experiment: SPR kinetic screen (Biacore), antibody captured as ligand (Fc=2-1), sample printed as ROR1 Ig, 25 C, 1:1 binding model; remark: listed apart in the source
[5] = molecular target: T2, human ROR1 Immunoglobulin domain (Ig, …); experiment: SPR kinetic screen (Biacore), antibody captured as ligand (Fc=4-1), sample printed as ROR1 Ig, 25 C, 1:1 binding model; fit to a flat sensorgram
human ROR1 (hROR1) [6] = molecular target: T3, human ROR1 (hROR1) (human, UniProt Q01973 30-937); experiment: cell-based or functional assay
[7] = molecular target: T4, human ROR1 Frizzled domain (hROR1-Fz) (human, UniProt Q01973 165-305); experiment: SPR Biacore, IgG on anti-Fc, ROR1-Fz analyte
T4 construct: Acro Biosystems, made in HEK293
Outline: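 Test antibodies captured on an anti-Fc surface (CM5 chip), then analyte bound for 180 s with 600 s dissociation at 25° C in HBS-EP+ buffer at 50 μL/min. Human ROR1 ECD, Frizzled or Kringle domain used as analyte; regeneration with 10 mM glycine pH 2.0.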

[8] = molecular target: T5, human ROR1 frizzled domain (hROR1-Fz) (human, UniProt Q01973 165-305); experiment: SPR kinetic screen (Biacore), antibody captured as ligand (Fc=3-1), sample ROR1 Fz, 25 C, 1:1 binding model; fit to a low response of at most about 2 on the response axis; Table 7 lists this pair as 'Not detected'
T5 construct: From Acro Biosystems

[9] = molecular target: T6, human ROR1 Frizzled domain (Fz, residues 165-305) with C-terminal HIS6 tag (human, UniProt Q01973 165-305); experiment: SPR (Biacore T200), IgG captured by anti-human Fc, ROR1 Fz as analyte, 1:1 Langmuir fit
T6 construct: Made in HEK293 cells and purified (Acro Biosystems); also called ROR1 Fz; hROR1-Fz
Experimental: as §1

human ROR1 (hROR1) [10] = molecular target: T3, human ROR1 (hROR1); experiment: flow cytometry, HCT116-hROR1 cells
[11] = molecular target: T7, receptor tyrosine kinase orphan receptor 1 (ROR1) on Ntera-2 cells (human, UniProt Q01973 30-937); experiment: cell-based or functional assay
[12] = molecular target: T7, receptor tyrosine kinase orphan …; experiment: cell-based or functional assay; remark: listed apart in the source
[13] = molecular target: T7, receptor tyrosine kinase orphan …; experiment: cell-based or functional assay; remark: listed apart in the source

B1: 1987-C05 HC with Trastuzumab LC (antibody, V domains shown)
VH: EVQLVESGGGLVQPGGSLRLSCAASGFNISDYDIHWVRQAPGKGLEWVGGIDPDDGSTDYADSVKGRFTISADTSKNTAYLQMNSLRAEDTAVYYCARDYGVFDYWGQGTLVTVSS
VL: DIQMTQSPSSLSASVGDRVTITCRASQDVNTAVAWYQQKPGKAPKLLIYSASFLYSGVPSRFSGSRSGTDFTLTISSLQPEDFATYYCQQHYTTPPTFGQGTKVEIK
notes: also called 1987-C05 HC w/trstmb LC (parent IgG); SRP1987-C05
[1]
  Kd: 0.277 nM
  koff: 0.000673 s⁻¹
  kon: 2.43e+06 M⁻¹ s⁻¹
[2]
  Kd: 0.00859 nM
  koff: 0.000705 s⁻¹
  kon: 8.2e+07 M⁻¹ s⁻¹
[3]
  EC50 (read off the curve): ~0.04 µg/mL

B2: 1987-C05 HC with hUCHT1-LC3 light chain (antibody, V domains shown)
VH: B1 VH
VL: DIQMTQSPSTLSASVGDRVTITCRASQDIRNYLNWYQQKPGKAPKLLIYYTSRLHSGVPSRFSGSGSGTEYTLTISSLQPDDFATYYCQQGNTLPWTFGGGTKVEIK
notes: IgG with an anti-CD3 light chain; also called 1987-C05 HC w/hUCHT1 LC3
[1]
  Kd: 1.14 nM
  koff: 0.000645 s⁻¹
  kon: 566000 M⁻¹ s⁻¹

B3: 1987-C05 HC co-expressed with hUCHT1-LC3 light chain (antibody, V domains shown)
VH: B1 VH
VL: B2 VL
notes: Only variable domains are tied to this pairing; also called 1987-C05 w/hUCHT1 LC3; 1987-C05 variant
[4]
  Kd: 2.6 nM
  koff: 0.133 s⁻¹
  kon: 5.11e+07 M⁻¹ s⁻¹
[3]
  EC50 (read off the curve): ~0.03 µg/mL

B4: 1987-C05 HC co-expressed with hSP34-LC3 light chain (antibody, V domains shown)
VH: B1 VH
VL: QTVVTQEPSLTVSPGGTVTLTCGSSTGAVTSGYYPNWFQQKPGQAPRGLIGGTKFLAPGTPARFSGSLLGGKAALTLSGVQPEDEAEYYCALWYSNRWVFGGGTQLTVTG
notes: Only variable domains are tied to this pairing; also called 1987-C05 w/hSP34 LC3; 1987-C05 variant
[5]
  Kd: 34.1 nM
  koff: 0.00133 s⁻¹
  kon: 38900 M⁻¹ s⁻¹

B5: SRP1944-A07 (with trastuzumab LC) (antibody, IgG1, V domains shown)
VH: EVQLVESGGGLVQPGGSLRLSCAASGFNITGYYIHWVRQAPGKGLEWVGYISPNSGSTYYADSVKGRFTISADTSKNTAYLQMNSLRAEDTAVYYCARDSRRYVRPFDYWGQGTLVTVSS
VL: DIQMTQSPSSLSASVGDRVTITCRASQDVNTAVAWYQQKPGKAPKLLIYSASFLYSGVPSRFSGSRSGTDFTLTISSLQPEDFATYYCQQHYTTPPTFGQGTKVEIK
notes: Parent of SRP2194; His/FLAG-tagged IgG1, cell-free; also called Antibody 126
Human ROR1 (hROR1) [6]
  Mino Nb-PBD, drug-conjugated 2° antibody Cell Killing EC50: 0.01 nM
[7]
  Kd: 24.5 nM
  koff: 0.01 s⁻¹
  kon: 559000 M⁻¹ s⁻¹

B6: 1944-A07 HC co-expressed with hOKT3-LC1 light chain (antibody, V domains shown)
VH: B5 VH
VL: DIQMTQSPSSLSASVGDRVTITCSASSSVSYMNWYQQKPGKAPKRLIYDTSKLASGVPSRFSGSGSGTEYTLTISSLQPEDFATYYCQQWSSNPFTFGQGTKLEIK
notes: Only variable domains are tied to this pairing
[3]
  EC50 (read off the curve): ~0.05 µg/mL
[8]
  Kd: 17.9 nM
  koff: 0.0137 s⁻¹
  kon: 763000 M⁻¹ s⁻¹

B7: 1944-A07 HC co-expressed with hSP34-LC3 light chain (antibody, IgG1, V domains shown)
VH: B5 VH
VL: B4 VL
notes: as for B6
[3]
  EC50 (read off the curve): ~0.05 µg/mL

B8: 1944-A07 HC with Trastuzumab LC (antibody, IgG1, V domains shown)
VH: B5 VH
VL: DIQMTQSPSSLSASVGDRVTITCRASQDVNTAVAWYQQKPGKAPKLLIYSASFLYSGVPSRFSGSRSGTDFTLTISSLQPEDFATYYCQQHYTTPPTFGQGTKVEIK
notes: Screening constructs are described as His- and FLAG-tagged IgG1; also called SRP1944-A07
[9]
  Kd: 9.59 nM
  koff: 0.029 s⁻¹
  kon: 3.02e+06 M⁻¹ s⁻¹
[3]
  EC50 (read off the curve): ~0.02 µg/mL

B9: 1944-A07 HC co-expressed with hUCHT1-LC3 light chain (antibody, V domains shown)
VH: B5 VH
VL: B2 VL
notes: as for B6
[3]
  EC50 (read off the curve): ~0.02 µg/mL

B10: SRP2194-A05 (antibody, IgG1, V domains shown)
VH: B5 VH with T30K, G31E, Y33H, S100H
VL: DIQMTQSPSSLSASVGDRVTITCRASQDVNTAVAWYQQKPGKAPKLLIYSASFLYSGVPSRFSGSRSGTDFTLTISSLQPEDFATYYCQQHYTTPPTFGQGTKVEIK
notes: His/FLAG-tagged IgG1, cell-free
Human ROR1 (hROR1) [6]
  Mino Nb-PBD, drug-conjugated 2° antibody Cell Killing EC50: 0.002 nM
Human ROR1 (hROR1) [10]
  Bmax (MFI): 8810 MFI
  Kd: 0.31 nM
[7]
  Kd: 1.54 nM
  koff: 0.000317 s⁻¹
  kon: 206000 M⁻¹ s⁻¹

B11: Conjugate 46 (D04-Y180/F241/F404/K42-LP3) (antibody, human IgG1, kappa)
heavy: MEVQLVESGGGLVQPGGSLRLSCAASGFNISDYDIHWVRQAPGKGLEWVGGIDPADGSTDYADSVKGRFTISADTSKNTAYLQMNSLRAEDTAVYYCARDYGVYDYWGQGTLVTVSSASTKGPSVFPLAPSSKSTSGGTAALGCLVKDYFPEPVTVSWNSGALTSGVHTFPAVLQSSGLSLSSVVTVPSSSLGTQTYICNVNHKPSNTKVDKKVEPKSCDKTHTCPPCPAPELLGGPSVLFPPKPKDTLMISRTPEVTCVVVDVSHEDPEVKFNWYVDGVEVHNAKTKPREEQYNSTYRVVSVLTVLHQDWLNGKEYKCKVSNKALPAPIEKTISKAKGQPREPQVYTLPPSREEMTKNQVSLTCLVKGFYPSDIAVEWESNGQPENNYKTTPPVLDSDGSFLYSKLTVDKSRWQQGNVFSCSVMHEALHNHYTQKSLSLSPGK
light: MDIQMTQSPSSLSASVGDRVTITCRASQDVNTAVAWYQQKPGAPKLLIYSASFLYSGVPSRFSGSRSGTDFTLTISSLQPEDFATYYCQQHYTTPPTFGQGTKVEIKRTVAAPSVFIFPPSDEQLKSGTASVVCLLNNFYPREAKVQWKVDNALQSGNSQESVTEQDSKDSTYSLSSTLTLSKADYEKHKVYACEVTHQGLSSPVTKSFNRGEC
modifications: pAMF at K42, linked to LP3; pAMF at Y180, F241 and F404 (EU), each linked to LP3
[11]
  cell killing EC50, NTERA-2 cells: 0.042 nM
  cell killing Span, NTERA-2 cells: 51%
[12]
  cell killing EC50, NTERA-2 cells: 0.045 nM
[13]
  Cell Killing on Ntera2 Cells, EC50, With 1 uM 2188-D04: < 10 nM
  Cell Killing on Ntera2 Cells, EC50, Without 2188-D04: 0.038 nM

B12: Conjugate 47 (D04-Y180/F241/F404/K42-LP4) (antibody, human IgG1, kappa)
heavy: B11 heavy
light: B11 light
modifications: pAMF at K42, linked to LP4; pAMF at Y180, F241 and F404 (EU), each linked to LP4
[11]
  cell killing EC50, NTERA-2 cells: 0.005 nM
  cell killing Span, NTERA-2 cells: 96%
[12]
  cell killing EC50, NTERA-2 cells: 0.007 nM
[13]
  Cell Killing on Ntera2 Cells, EC50, With 1 uM 2188-D04: < 10 nM
  Cell Killing on Ntera2 Cells, EC50, Without 2188-D04: 0.008 nM
